Source: US5763245A, “Method of controlling insects” (priority 1996, dated 1998)

Columns and labels:
black cutworm = experiment: Lepidopteran larvae bioassay on treated artificial diet, six days; type: in vivo; conditions: stage lv, dose 100 μg/mL
Experimental: (§1) Lepidopteran larvae were tested on artificial diet treated with the indicated amount of the A19249 3-hydroxysteroid oxidase (cholesterol oxidase) for six days.

pink bollworm = experiment: as above; type: in vivo; conditions: stage lv
Experimental: as §1

beet armyworm = experiment: as above; type: in vivo; conditions: stage lv, dose 100 μg/mL
Experimental: as §1

corn earworm = experiment: as above; type: in vivo; conditions: stage lv
Experimental: as §1

tobacco budworm = experiment: as above; type: in vivo
Experimental: as §1

tobacco hornworm = experiment: as above; type: in vivo; conditions: stage lv
Experimental: as §1

European cornborer = experiment: as above; type: in vivo; conditions: stage lv
Experimental: as §1

fall army worm = experiment: as above; type: in vivo; conditions: stage lv, dose 30 μg/mL
Experimental: as §1

tobacco budworm larvae = experiment: Extended test with tobacco budworm larvae; type: in vivo; conditions: 100 ppm in artificial diet
Experimental: An extended test was performed with tobacco budworm larvae to test the effect of the stunting noted in the six-day test. Tobacco budworm eggs were added to artificial diet (as described above) containing either buffer or 100 ppm A19249 3-hydroxysteroid oxidase (cholesterol oxidase). After seven days, some mortality as compared to the controls was noted. Surviving larvae were moved to fresh diet (control or treated, as appropriate). Percent mortality (corrected for control mortality) is reported for the 7 day and 10 day periods in Table 2A. The corrected number of larvae was […]

[1] = 3-Hydroxysteroid oxidase assay (spectrophotometric); type: biochemical
Experimental: The identity of the enzyme was confirmed by testing its ability to oxidize a 3-hydroxysteroid, specifically cholesterol. The enzyme is added to a reagent mixture comprising horseradish peroxidase (20 U/mL), phenol (14 mM), 4-amino antipyrine (0.82 mM), Triton® X-100 (0.05%) and phosphate buffer (100 mM, pH 7). The sterol in isopropanol is then added and the absorbance at 500 nm monitored. One unit of activity is defined as the amount of enzyme required to oxidize 1 &mole of sterol per minute at 20% C.
The activity levels of the enzymes are reported in Table 12 for 3-hydroxysteroids representative of various classes of 3-hydroxysteroids.

boll weevil larvae = experiment: Boll weevil larvae bioassay (diet incorporation); type: in vivo
Experimental: Assays for activity against boll weevil larvae are carried out by incorporating the test sample into a agar liquid diet similar to that for southern corn rootworm [Marrone et al., 1985]. The test sample is substituted for the 20% water component. Neonate larvae are allowed to feed on the diet and mortality and growth stunting are evaluated.
Protein concentrations were determined spectrophotometrically with BCA protein reagent [Smith et al., 1985].

B1: A19249: 3-hydroxysteroid oxidase produced by streptomycete A19249 collected in Madagascar; 52.5 kDa, SEQ ID NO: 8 (protein)
chain: VNAHQPLSRRRMLGLAALGAAALTGQTTITAAPRAAAATAPGGSGGTFVPAVVIGTGYGAAVSALRLGEAGVSTLMLEMGQLWNQPGPDGNVFCGMLKPDKRSSWFKTRTEAPLGSFLWLDLANRDIDPYAGVLDRVNFDQMSVYVGRGVGGGSLVNGGMAVTPRRSYFQEVLPQVDADEMYGTYFPRANSGLRVNNIDKDWFEQTEWYTFARVARLQAENAGLKTTFVPNVYDWDYMRGEADGTNPKSALAAEVIYGNNHGKVSLDKSYLAAALGTGKVTVETLHQVKTIRQQNDGTYLLTVEQKDPDGKLLGTKEISCRHLFLGAGSLGSIELLLRARETGTLPGLSSEIGGGWGPNGNIMTARANHVWNPTGSKQSSIPALGIDDWDNPDNPVFAEIAPMPAGLETWVSLYLAITKNPERGTFVYDAAKDRADLRWTRDQNAPAVAAAKSLFDRVNKANTTIYRYDLFGKQIKAFADDFCYHPLGGCVLGKATDNYGRVSGYKNLYVTDGSLIPGSIGVNPFVTITALAERNVERVIKEDIAGS
Stunting (black cutworm): 68%
Stunting (pink bollworm; dose 50 μg/mL): 0
Stunting (pink bollworm; dose 100 μg/mL): 30%
Stunting (beet armyworm): 76%
Stunting (corn earworm; dose 50 μg/mL): 0
Stunting (corn earworm; dose 100 μg/mL): 35%
Stunting (tobacco budworm; stage egg/lv, dose 30 μg/mL): 0
Stunting (tobacco budworm; stage lv, dose 100 μg/mL): 86%
Stunting (tobacco hornworm; dose 30 μg/mL): 0
Stunting (tobacco hornworm; dose 100 μg/mL): 30%
Stunting (European cornborer; dose 50 μg/mL): 0
Stunting (European cornborer; dose 100 μg/mL): 46%
Stunting (fall army worm): 0
Percent Mortality (corrected for control mortality) (tobacco budworm larvae; interval 7 days): 20%
Percent Mortality (corrected for control mortality) (tobacco budworm larvae; interval 10 days): 61%
Percent Mortality (corrected for control mortality) (tobacco budworm larvae; interval 14 days): 80%
Relative Rate ([1]; sterol: 20-OH ecdysone): < 1
Relative Rate ([1]; sterol: campesterol*): 65
Relative Rate ([1]; sterol: cholesterol): 100
Relative Rate ([1]; sterol: dehydrocholesterol): 13
Relative Rate ([1]; sterol: dihydrocholesterol): 56
Relative Rate ([1]; sterol: ecdysone): < 1
Relative Rate ([1]; sterol: fucosterol): 22
Relative Rate ([1]; sterol: lanosterol): < 1
Relative Rate ([1]; sterol: lathosterol): 28
Relative Rate ([1]; sterol: sitosterol): 88
Relative Rate ([1]; sterol: stigmasterol): 22
BollWeevil % Mortality (boll weevil larvae; 5 μg/mL, 175 mUnits per mL): 10%
Survivor Stunting (boll weevil larvae; 5 μg/mL, 175 mUnits per mL): Slight
BollWeevil % Mortality (boll weevil larvae; 10 μg/mL, 350 mUnits per mL): 10%
Survivor Stunting (boll weevil larvae; 10 μg/mL, 350 mUnits per mL): Moderate
BollWeevil % Mortality (boll weevil larvae; 15 μg/mL, 525 mUnits per mL): 5%
Survivor Stunting (boll weevil larvae; 15 μg/mL, 525 mUnits per mL): Moderate
BollWeevil % Mortality (boll weevil larvae; 20 μg/mL, 700 mUnits per mL): 15%
Survivor Stunting (boll weevil larvae; 20 μg/mL, 700 mUnits per mL): Severe
BollWeevil % Mortality (boll weevil larvae; 40 μg/mL, 1400 mUnits per mL): 70%
Survivor Stunting (boll weevil larvae; 40 μg/mL, 1400 mUnits per mL): Severe
BollWeevil % Mortality (boll weevil larvae; 60 μg/mL, 2100 mUnits per mL): 60%
Survivor Stunting (boll weevil larvae; 60 μg/mL, 2100 mUnits per mL): Severe
